# Data as given in US20260070975A1 (SANTA ANA BIO, published 2026).
# T1: siglec 14 expressed on HEK293 cells (UniProt Q08ET2 17-396, limits assumed)
# T1 construct: whole, on cells; also called Siglec-6 family member
# T1 sequence (looked up): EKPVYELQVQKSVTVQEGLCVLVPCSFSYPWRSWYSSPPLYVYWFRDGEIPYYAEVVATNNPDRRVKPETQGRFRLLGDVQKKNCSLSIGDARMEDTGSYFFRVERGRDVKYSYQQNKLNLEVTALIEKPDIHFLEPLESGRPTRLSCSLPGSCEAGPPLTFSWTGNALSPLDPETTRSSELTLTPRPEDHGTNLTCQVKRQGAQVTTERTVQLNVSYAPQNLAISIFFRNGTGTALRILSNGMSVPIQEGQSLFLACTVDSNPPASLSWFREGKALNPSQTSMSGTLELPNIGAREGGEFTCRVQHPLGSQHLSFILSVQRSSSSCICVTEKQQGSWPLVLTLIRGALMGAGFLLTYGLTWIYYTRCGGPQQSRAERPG
# Biological target: T1, siglec 14 expressed on HEK293 cells
# Assay: flow cytometry on HEK293 cells expressing the target
# Method: Cultured HEK293 cells expressing human siglec-6, cynomolgus siglec-6, or siglec 6 family members were resuspended in FACS Blocking Buffer (PBS+10% normal human serum) for 30 minutes. Following washing, cells were incubated with siglec-6 antibodies in FACS Buffer (PBS+0.5% bovine serum albumin+0.09% sodium azide) and incubated at 4° C. for 30 minutes, washed and incubated with PE-labeled anti-human secondary antibody. Cells were incubated at 4° C. for 30 minutes in the dark. Following washing, cytofluorimetric analysis was conducted using a BD FACS Symphony A3 (BD Biosciences). Cells were sorted by scatter properties and separated for single cell analysis using side scatter width vs side scatter area. Antibody binding to cells was quantitated by measuring fluorescent emissions of excitation wavelength of 561 nm using a 586/15 nm filter. Data analysis was performed using FlowJo Software.
row,Binder,binding result
1,"hRND-2 (antibody, human IgG1, kappa, V domains shown, also called humanized RND-2; hRND-H2 / hRND-L3; copies: 2 + 2) VH: QVQLVQSGAEVKKPGASVKVSCKASGYAFTSYWMHWVRQAPGQRLEWMGEIYPTNGGTTYAQKFQGRVTMTVDKSTSTAYMELSRLRSDDTAVYYCTIEDFYAMDYWGQGTTVTVSS VL: DIVMTQTPLSLSVTPGQPASISCKSSQSLLDSDGKTSLNWLLQKPGQSPQRLIYLVSKLDSGVPDRFSGSGSGTDFTLKISRVEAEDVGVYYCWQGTHFPYTFGQGTKLEIKR",no binding
2,"hRND-3 (antibody, human IgG1, kappa, V domains shown, also called humanized RND-3; hRND-H3 / hRND-L3; copies: 2 + 2) VH: QVQLVQSGAEVKKPGASVKLSCKASGYAFTSYWMHWVRQAPGQRLEWIGEIYPTNGGTTYAQKFQGRATLTVDKSTSTAYMELSRLRSDDTAVYYCTIEDFYAMDYWGQGTTVTVSS VL: DIVMTQTPLSLSVTPGQPASISCKSSQSLLDSDGKTSLNWLLQKPGQSPQRLIYLVSKLDSGVPDRFSGSGSGTDFTLKISRVEAEDVGVYYCWQGTHFPYTFGQGTKLEIKR",no binding

# More lines, now with the values ahead:
row,binding result,Binder
1,no binding,"hRND-4 (antibody, human IgG1, kappa, V domains shown, also called humanized RND-4; hRND-H2b / hRND-L3; copies: 2 + 2) VH: QVQLVQSGAEVKKPGASVKVSCKASGYAFTSYWMHWVRQAPGQRLEWMGEIYPTNGGTTYNEKFKRRVTMTVDKSTSTAYMELSRLRSDDTAVYYCTIEDFYAMDYWGQGTTVTVSS VL: DIVMTQTPLSLSVTPGQPASISCKSSQSLLDSDGKTSLNWLLQKPGQSPQRLIYLVSKLDSGVPDRFSGSGSGTDFTLKISRVEAEDVGVYYCWQGTHFPYTFGQGTKLEIKR"
2,no binding,"hRND-5 (antibody, human IgG1, kappa, V domains shown, also called humanized RND-5; hRND-H3b / hRND-L3; copies: 2 + 2) VH: QVQLVQSGAEVKKPGASVKLSCKASGYAFTSYWMHWVRQAPGQRLEWIGEIYPTNGGTTYNEKFKRRATLTVDKSTSTAYMELSRLRSDDTAVYYCTIEDFYAMDYWGQGTTVTVSS VL: DIVMTQTPLSLSVTPGQPASISCKSSQSLLDSDGKTSLNWLLQKPGQSPQRLIYLVSKLDSGVPDRFSGSGSGTDFTLKISRVEAEDVGVYYCWQGTHFPYTFGQGTKLEIKR"
